Experimental data reported in the supplement of paper PMC6757056.
± gives the standard deviation of the averaged measurements.

B1: library; a variant is named by its letters at N, in order (parent)
chain: GCUGUCACCGAGAAACUGUGAAGUAUAUCUUAAACCUGGGCACUUAAAAGAUAUAUGGAGUUAGUAGUGCAACCUGCUCGGUCUGAUGAGUCCNNNNNNGGACGAAACAGC

Experiments:
cyclic di-GMP [1] = variants of: B1; assay: FACS-Seq fitted mean relative fluorescence mCherry/BFP without ligand (log10 relative fluorescence); HEK293T; ligand: cyclic di-GMP (c-di-GMP-II aptamer); higher = higher reporter protein expression; conditions: ligand present: no
Method in brief: (§1)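 Genomic DNA from 6 mCherry/BFP sort bins was PCR-amplified, barcoded and sequenced on MiSeq. The sorted cells were enriched HEK293T libraries, lentivirally transduced with a ribozyme-switch mCherry reporter and an EF1α-BFP marker, incubated with or without ligand for 48 h. Fluorescence derives from a normal fit to the bin counts. The fit was on log10(mCherry/BFP), and means were scaled to five spiked-in control ribozymes.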

cyclic di-GMP [2] = variants of: B1; assay: normalized RNA/DNA level without ligand (relative to sTRSVctl = 100) (log10 (% of sTRSVctl)); HEK293T; ligand: cyclic di-GMP (c-di-GMP-II aptamer); higher = less ribozyme self-cleavage, higher mRNA level; conditions: reporter: mCherry (pCS4076), ligand present: no
Method in brief: (§2)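 RNA level was computed as RNA reads over DNA reads divided by a spiked-in non-cleaving sequence or by the top sequences, then scaled and log-transformed. Scaling was ×100 with log10, the top group was 25 sequences, and the threshold was ≥100 DNA reads. The reads came from HEK293T cells transfected at 4 µg per 6-well well with ribozyme switch library plasmids (mCherry, or eGFP in some ligand experiments). Total RNA was extracted with EDTA 72 h after transfection, with any ligand added 1 h before it.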

cyclic di-GMP [3] = variants of: B1; assay: FACS-Seq fitted mean relative fluorescence mCherry/BFP with ligand (log10 relative fluorescence); HEK293T; ligand: cyclic di-GMP (c-di-GMP-II aptamer); ligand concentration (+) FACS-Seq: 1 mM; higher = higher reporter protein expression; conditions: ligand present: yes
Method in brief: as §1

cyclic di-GMP [4] = variants of: B1; assay: normalized RNA/DNA level with ligand (relative to sTRSVctl = 100) (log10 (% of sTRSVctl)); HEK293T; ligand: cyclic di-GMP (c-di-GMP-II aptamer); ligand concentration (+) RNA-Seq: 1 mM; higher = less ribozyme self-cleavage, higher mRNA level; conditions: reporter: mCherry (pCS4076), ligand present: yes
Method in brief: as §2

Variant | FACS-Seq fitted mean (log10) (cyclic di-GMP [1]) | normalized RNA/DNA level without ligand (log10) (cyclic di-GMP [2]) | FACS-Seq fitted mean (log10) (cyclic di-GMP [3]) | normalized RNA/DNA level with ligand (log10) (cyclic di-GMP [4])
UUCGGA | -0.328 ± 0.044 | 1.58 ± 0.093 | 0.0771 ± 0.088 | 1.8 ± 0.081
UUCGGC | -0.553 ± 0.015 | 1.81 ± 0.029 | -0.447 ± 0.062 | 1.9 ± 0.086
AUAUCC | -0.758 ± 0.046 | 1.73 ± 0.048 | -0.565 ± 0.012 | 1.9 ± 0.11
CUAUUA | -0.459 ± 0.052 | 1.38 ± 0.033 | -0.243 ± 0.052 | 1.6 ± 0.064
GUGAGA | -0.476 ± 0.052 | 1.41 ± 0.058 | -0.164 ± 0.051 | 1.6 ± 0.089
GUACGG | 0.00232 ± 0.14 | 1.62 ± 0.053 | 0.333 ± 0.011 | 1.77 ± 0.059
GUACGC | -0.788 ± 0.17 | 1.77 ± 0.056 | -0.516 ± 0.067 | 1.88 ± 0.091
GUACGA | -0.395 ± 0.055 | 1.43 ± 0.046 | -0.0985 ± 0.03 | 1.64 ± 0.077
GUGCCG | -0.423 ± 0.023 | 1.828 ± 0.017 | -0.15 ± 0.011 | 1.92 ± 0.11
AUACAA | -0.183 ± 0.011 | 1.54 ± 0.048 | 0.0162 ± 0.13 | 1.73 ± 0.099
AUACAU | -0.192 ± 0.015 | 1.62 ± 0.062 | 0.241 ± 0.0042 | 1.78 ± 0.074
UUAGUG | -0.38 ± 0.014 | 1.625 ± 0.0063 | -0.0431 ± 0.00068 | 1.81 ± 0.091
GUGAUG | -0.401 ± 0.17 | 1.54 ± 0.09 | -0.137 ± 0.01 | 1.73 ± 0.068
GUGAUC | -0.464 ± 0.047 | 1.15 ± 0.17 | -0.114 ± 0.0038 | 1.27 ± 0.017
GUGAUU | -0.56 ± 0.007 | 1.621 ± 0.01 | -0.311 ± 0.025 | 1.79 ± 0.088
CUGAUG | -0.749 ± 0.029 | 1.39 ± 0.12 | -0.5264 ± 0.0006 | 1.58 ± 0.081
CUGAUA | -0.362 ± 0.04 | 1.27 ± 0.11 | -0.182 ± 0.1 | 1.5 ± 0.1
CUGAUU | -0.154 ± 0.084 | 1.505 ± 0.015 | 0.107 ± 0.18 | 1.71 ± 0.12

Variant | FACS-Seq fitted mean (log10) (cyclic di-GMP [1]) | normalized RNA/DNA level without ligand (log10) (cyclic di-GMP [2]) | FACS-Seq fitted mean (log10) (cyclic di-GMP [3]) | normalized RNA/DNA level with ligand (log10) (cyclic di-GMP [4])
UUAUGG | -0.0165 ± 0.12 | 1.74 ± 0.053 | 0.213 ± 0.035 | 1.85 ± 0.13
UUAUGA | -0.781 ± 0.045 | 1.63 ± 0.025 | -0.563 ± 0.026 | 1.81 ± 0.12
UGUUGA | -0.163 ± 0.015 | 1.6 ± 0.041 | -0.0478 ± 0.051 | 1.78 ± 0.12
GGUUCC | 0.28 ± 0.17 | 1.8648 ± 0.0011 | 0.396 ± 0.056 | 1.96 ± 0.085
CUACAA | -0.602 ± 0.069 | 1.48 ± 0.11 | -0.356 ± 0.025 | 1.68 ± 0.067
CUACAC | -0.167 ± 0.016 | 1.699 ± 0.0052 | 0.0624 ± 0.12 | 1.83 ± 0.11
GUGGAA | -0.382 ± 0.021 | 1.4 ± 0.087 | -0.0891 ± 0.076 | 1.63 ± 0.092
CUAAAA | -0.3961 ± 0.0027 | 1.35 ± 0.057 | -0.114 ± 0.1 | 1.61 ± 0.075
CUAAAU | -0.443 ± 0.034 | 1.5 ± 0.1 | -0.0872 ± 0.068 | 1.69 ± 0.044
GUAACG | -0.145 ± 0.033 | 1.678 ± 0.014 | 0.124 ± 0.056 | 1.78 ± 0.14
UUAUAU | -0.127 ± 0.066 | 1.68 ± 0.0031 | 0.0702 ± 0.1 | 1.8 ± 0.081
AUCUAC | -0.188 ± 0.047 | 1.7235 ± 0.00012 | 0.162 ± 0.094 | 1.81 ± 0.12
GUAUUG | -0.534 ± 0.043 | 1.53 ± 0.044 | -0.274 ± 0.037 | 1.71 ± 0.078
GUAUUU | -0.574 ± 0.0067 | 1.686 ± 0.0056 | -0.186 ± 0.035 | 1.82 ± 0.085
GUAGAA | -0.503 ± 0.021 | 1.39 ± 0.081 | -0.1892 ± 0.0011 | 1.63 ± 0.1
GUAGAU | -0.404 ± 0.035 | 1.55 ± 0.057 | -0.145 ± 0.055 | 1.72 ± 0.08
GUAGAG | 0.0274 ± 0.11 | 1.47 ± 0.073 | 0.252 ± 0.077 | 1.66 ± 0.12
CUAUCC | -0.679 ± 0.11 | 1.77 ± 0.028 | -0.371 ± 0.13 | 1.88 ± 0.13
